From US20230213527A1 (QUANTUM SI, published 2023)
Ends that are not written are not given here.

Columns and labels:
Assay in all cases: single-molecule on-chip dynamic sequencing; recognition of N-terminal leucine
[1] = target: T1, … (SEQ ID NO: 798), state with N-terminal leucine (LAFAYPDDD) (not fully specified (C-terminus); also: C-terminal azidolysine conjugated to DNA-streptavidin linker)
T1 construct: residue range inferred from the recognized N-terminal residue
T1 peptide: LAFAYPDDD
Experimental: (§1) To illustrate how the kinetic parameters acquired from sequencing are sensitive to changes in sequence composition, sequencing was performed with a set of three peptides […] (SEQ ID NO: 798), […] (SEQ ID NO: 799), and […] (SEQ ID NO: 800)—that differ only at a single position, located immediately downstream from the PS961 N-terminal target leucine.
(§2) The semiconductor chip was placed in the sequencing device and a chip check was performed to test electronic circuit function and to optimize laser coupling alignment. The chip was then removed from the device socket and the chip was washed twice with 50 μL of 70% isopropanol, followed by four washes with 30 μL of wash buffer (50 mM MOPS pH 8.0, 60 mM potassium acetate, 50 mM glucose, 20 mM magnesium acetate, and surfactant mix) through a flow cell attached to the chip. A second chip check was then performed. The laser was then blocked via an integrated software-controlled shutter, peptide complex was added to a final concentration of 1-10 nM and mixed thoroughly, and the chip was incubated for 15 min. The chip was then washed six times with wash buffer, followed by addition of an imaging solution (wash buffer with 5 mM Trolox and an oxygen scavenging system). The laser was unblocked and the occupancy percentage (target 10-30%, Poisson distributed) was recorded by acquiring a photobleaching signal from a fluorophore attached to the peptide complex during 5 min of laser illumination. For NAA recognition-only assays, after peptide loading, labeled recognizer was added to a final concentration of 50 nM PS610, 100 nM PS691, or 250 nM PS961 (as indicated according to the experiment), and data was recorded for 10 hours.

[2] = target: T2, … (SEQ ID NO: 800), state with N-terminal leucine (LVFAYPDDD) (not fully specified (C-terminus); also: C-terminal azidolysine conjugated to DNA-streptavidin linker)
T2 construct: residue range inferred from the recognized N-terminal residue
T2 peptide: LVFAYPDDD
Experimental: as §1, §2

[3] = target: T3, … (SEQ ID NO: 799), state with N-terminal leucine (LIFAYPDDD) (not fully specified (C-terminus); also: C-terminal azidolysine conjugated to DNA-streptavidin linker)
T3 construct: residue range inferred from the recognized N-terminal residue
T3 peptide: LIFAYPDDD
Experimental: as §1, §2

B1: PS961 (designed binder)
chain: MPTAASATESAIEDTPAPARPEVDGRTKPKRQPRYHVVLWDDDDHTYQYVVVMLRSLFGHPPSRGYRMAKEMDTQGRVIVLTTTREHAELKRDQIHAFGRDRLLARSKGSMKASIEAEE
notes: also called PS961 (L, I, V); PS961 (LIV)
[1]
  median pulse duration (PD): 1.29 s
[2]
  median pulse duration (PD): 4.21 s
[3]
  median pulse duration (PD): 2.22 s
